Measured values as given in paper PMC7840946 (2021).
Where a chain is given by its changes, count along the chain named. Read-outs that look alike come from different tables or passages of the source.

B1: p4-36gl, predicted germline version of mAb p4-36 (antibody, V domains shown)
VH: EVQLVESGGGLVQPGRSLRLSCTASGFTFGDYAMSWVRQAPGKGLEWVGFIRSKAYGGTTEYAASVKGRFTISRDDSKSIAYLQMNSLKTEDTAVYYCTGPRPYYDSSGYYPYYFDYWGQGTLVTVSS
VL: QSALTQPRSVSGSPGQSVTISCTGTSSDVGGYNYVSWYQQHPGKAPKLMIYDVSKRPSGVPDRFSGSKSGNTASLTISGLQAEDEADYYCCSYAGSYTYVVFGGGTKLTVL
B2: mAb p4-163 (human IgG1) (antibody, V domains shown)
VH: EVQLVESGGGLVKPGGSLRLSCAASGFTFESHRMHWVRQAPGKGLEWVSSIISSRTYIYYADSVKGRFTISRDNSRNSLFLQMNSLRAEDTAVYYCARGDYYYDGVASDPHFDNWGQGTLVTVSS
VL: QSVLTQPPSASGTPGQRVTISCSGGRSNIGSNYVYWFQQLPGTAPQLLIYRNIQRPSGVPARFSGSKSGTSASLAISGLRSEDEADYYCATWDDSLSGVVFGGGTKVTVL
B3: mAb p4-170 (human IgG1) (antibody, V domains shown)
VH: B2 VH with E30S, R76G, A88V
VL: B2 VL with P7T, G25S, L40F, T43A, G69D, D86H, T91A

Key:
[1] = target: T1, PstS1 (Rv0934), recombinant, wild type (Mycobacterium tuberculosis, UniProt P9WGU1); assay: SPR
[2] = target: T1, PstS1 (Rv0934), recombinant, wild type; assay: SPR; remark: listed apart in the source

T1 sequence (P9WGU1 25-374): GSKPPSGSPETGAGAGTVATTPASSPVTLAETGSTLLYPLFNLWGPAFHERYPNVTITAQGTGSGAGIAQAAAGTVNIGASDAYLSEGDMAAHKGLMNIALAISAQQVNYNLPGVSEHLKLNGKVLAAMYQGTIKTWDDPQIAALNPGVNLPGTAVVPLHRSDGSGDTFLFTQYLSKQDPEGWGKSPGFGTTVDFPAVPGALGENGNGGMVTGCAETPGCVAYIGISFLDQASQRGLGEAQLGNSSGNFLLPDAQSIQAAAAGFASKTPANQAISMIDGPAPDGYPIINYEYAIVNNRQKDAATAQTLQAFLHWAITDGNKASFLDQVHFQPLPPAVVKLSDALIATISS

Row | Binder | Kd [1] | Kd [2]
1 | B1 | 6.85 nM | –
2 | B2 | – | 4.45 nM
3 | B3 | – | 1.34 nM
